Test results reported in patent publication US20240270846A1 (published 2024).

B1: GPC3 ERY22-dBBDu_186/L098 (bispecific antibody, human IgG1, kappa, L234A L235A, N297A)
heavy 1: DIVMTQSPLSLPVTPGEPASISCRSSQSLVHSNRNTYLHWYQQKPGQAPRLLIYKVSNRFSGVPDRFSGSGSGTDFTLKISRVEAEDVGVYYCSQNTHVPPTFGQGTKLEIKSSASTKGPSVFPLAPSSKSTSGGTAALGCLVKDYFPEPVTVSWNSGALTSGVHTFPAVLQSSGLYSLSSVVTVPSSSLGTQTYICNVNHKPSNTKVDKKVEPKSCDKTHTCPPCPAPEAAGGPSVFLFPPKPKDTLMISRTPEVTCVVVDVSHEDPEVKFNWYVDGVEVHNAKTKPREEQYASTYRVVSVLTVLHQDWLNGKEYKCKVSNKALPAPIEKTISKAKGQPREPQVCTLPPSRDELTKNQVSLWCLVKGFYPSDIAVEWESNGQPENNYKTTPPVLDSDGSFFLYSKLTVDKSRWQQGNVFSCSVMHEALHNHYTQKSLSLSPHHHHHHHH
light 1: QVQLVQSGAEVKKPGASVKVSCKASGYTFTDYEMHWIRQPPGQGLEWIGAIDPKTGDTAYSQKFKGRVTLTADKSTSTAYMELSSLTSEDTAVYYCTRFYSYTYWGQGTLVTVSSASVAAPSVFIFPPSDEQLKSGTASVVCLLNNFYPREAKVQWKVDNALQSGNSQESVTEQDSKDSTYSLSSTLTLSKADYEKHKVYACEVTHQGLSSPVTKSFNRGEC
heavy 2: QVQLVESGGGLVQPGRSLRLSCAASGFTFSNAWMHWVRQAPGKGLEWVAQIKDRSNQYATYYAPSVKGRFTISRDDSKNSIYLQMNSLKTEDTAVYYCHYVHYAQASTVLPAFGVDAWGQGTTVTVSSASTKGPSVFPLAPSSKSTSGGTAALGCLVKDYFPEPVTVSWNSGALTSGVHTFPAVLQSSGLYSLSSVVTVPSSSLGTQTYICNVNHKPSNTKVDKKVEPKSCDKTHTCPPCPAPEAAGGPSVFLFPPKPKDTLMISRTPEVTCVVVDVSHEDPEVKFNWYVDGVEVHNAKTKPREEQYASTYRVVSVLTVLHQDWLNGKEYKCKVSNKALPAPIEKTISKAKGQPREPQVYTLPPSRCELTKNQVSLSCAVKGFYPSDIAVEWESNGQPENNYKTTPPVLDSDGSFFLVSKLTVDKSRWQQGNVFSCSVMHEALHNHYTQKSLSLSPDYKDDDDK
light 2: DIVMTQSPLSLPVTPGEPASISCAASEELVHINRYIFLHWYQQKPGQAPRLLIYKVSNRFIGVPDRFSGSGSGTDFTLKISRVEAEDVGVYYCAQGSQVPFTFGQGTKLEIKRTVAAPSVFIFPPSDEQLKSGTASVVCLLNNFYPREAKVQWKVDNALQSGNSQESVTEQDSKDSTYSLSSTLTLSKADYEKHKVYACEVTHQGLSSPVTKSFNRGEC
B2: GPC3 ERY22-dBBDu_189/L116 (bispecific antibody, human IgG1, kappa, L234A L235A, N297A)
heavy 1: DIVMTQSPLSLPVTPGEPASISCRSSQSLVHSNRNTYLHWYQQKPGQAPRLLIYKVSNRFSGVPDRFSGSGSGTDFTLKISRVEAEDVGVYYCSQNTHVPPTFGQGTKLEIKSSASTKGPSVFPLAPSSKSTSGGTAALGCLVKDYFPEPVTVSWNSGALTSGVHTFPAVLQSSGLYSLSSVVTVPSSSLGTQTYICNVNHKPSNTKVDKKVEPKSCDKTHTCPPCPAPEAAGGPSVFLFPPKPKDTLMISRTPEVTCVVVDVSHEDPEVKFNWYVDGVEVHNAKTKPREEQYASTYRVVSVLTVLHQDWLNGKEYKCKVSNKALPAPIEKTISKAKGQPREPQVCTLPPSRDELTKNQVSLWCLVKGFYPSDIAVEWESNGQPENNYKTTPPVLDSDGSFFLYSKLTVDKSRWQQGNVFSCSVMHEALHNHYTQKSLSLSPHHHHHHHH
light 1: QVQLVQSGAEVKKPGASVKVSCKASGYTFTDYEMHWIRQPPGQGLEWIGAIDPKTGDTAYSQKFKGRVTLTADKSTSTAYMELSSLTSEDTAVYYCTRFYSYTYWGQGTLVTVSSASVAAPSVFIFPPSDEQLKSGTASVVCLLNNFYPREAKVQWKVDNALQSGNSQESVTEQDSKDSTYSLSSTLTLSKADYEKHKVYACEVTHQGLSSPVTKSFNRGEC
heavy 2: QVQLVESGGGLVQPGRSLRLSCAASGFTFSNAWMHWVRQAPGKGLEWIAQIKDRSNQYATYYAPSVKGRFTISRDDSKNSIYLQMNSLKTEDTAVYYCHYVHYAQASSLLPSFGVDAWGQGTTVTVSSASTKGPSVFPLAPSSKSTSGGTAALGCLVKDYFPEPVTVSWNSGALTSGVHTFPAVLQSSGLYSLSSVVTVPSSSLGTQTYICNVNHKPSNTKVDKKVEPKSCDKTHTCPPCPAPEAAGGPSVFLFPPKPKDTLMISRTPEVTCVVVDVSHEDPEVKFNWYVDGVEVHNAKTKPREEQYASTYRVVSVLTVLHQDWLNGKEYKCKVSNKALPAPIEKTISKAKGQPREPQVYTLPPSRCELTKNQVSLSCAVKGFYPSDIAVEWESNGQPENNYKTTPPVLDSDGSFFLVSKLTVDKSRWQQGNVFSCSVMHEALHNHYTQKSLSLSPDYKDDDDK
light 2: DIVMTQSPLSLPVTPGEPASISCSSSQELVHANRQIYLHWYQQKPGQAPRLLIYKVANRFPGVPDRFSGSGSGTDFTLKISRVEAEDVGVYYCAQGTQVPFTFGQGTKLEIKRTVAAPSVFIFPPSDEQLKSGTASVVCLLNNFYPREAKVQWKVDNALQSGNSQESVTEQDSKDSTYSLSSTLTLSKADYEKHKVYACEVTHQGLSSPVTKSFNRGEC
B3: GPC3 ERY22-dBBDu_186/L106 (bispecific antibody, human IgG1, kappa, L234A L235A, N297A)
heavy 1: DIVMTQSPLSLPVTPGEPASISCRSSQSLVHSNRNTYLHWYQQKPGQAPRLLIYKVSNRFSGVPDRFSGSGSGTDFTLKISRVEAEDVGVYYCSQNTHVPPTFGQGTKLEIKSSASTKGPSVFPLAPSSKSTSGGTAALGCLVKDYFPEPVTVSWNSGALTSGVHTFPAVLQSSGLYSLSSVVTVPSSSLGTQTYICNVNHKPSNTKVDKKVEPKSCDKTHTCPPCPAPEAAGGPSVFLFPPKPKDTLMISRTPEVTCVVVDVSHEDPEVKFNWYVDGVEVHNAKTKPREEQYASTYRVVSVLTVLHQDWLNGKEYKCKVSNKALPAPIEKTISKAKGQPREPQVCTLPPSRDELTKNQVSLWCLVKGFYPSDIAVEWESNGQPENNYKTTPPVLDSDGSFFLYSKLTVDKSRWQQGNVFSCSVMHEALHNHYTQKSLSLSPHHHHHHHH
light 1: QVQLVQSGAEVKKPGASVKVSCKASGYTFTDYEMHWIRQPPGQGLEWIGAIDPKTGDTAYSQKFKGRVTLTADKSTSTAYMELSSLTSEDTAVYYCTRFYSYTYWGQGTLVTVSSASVAAPSVFIFPPSDEQLKSGTASVVCLLNNFYPREAKVQWKVDNALQSGNSQESVTEQDSKDSTYSLSSTLTLSKADYEKHKVYACEVTHQGLSSPVTKSFNRGEC
heavy 2: QVQLVESGGGLVQPGRSLRLSCAASGFTFSNAWMHWVRQAPGKGLEWVAQIKDRSNQYATYYAPSVKGRFTISRDDSKNSIYLQMNSLKTEDTAVYYCHYVHYAQASTVLPAFGVDAWGQGTTVTVSSASTKGPSVFPLAPSSKSTSGGTAALGCLVKDYFPEPVTVSWNSGALTSGVHTFPAVLQSSGLYSLSSVVTVPSSSLGTQTYICNVNHKPSNTKVDKKVEPKSCDKTHTCPPCPAPEAAGGPSVFLFPPKPKDTLMISRTPEVTCVVVDVSHEDPEVKFNWYVDGVEVHNAKTKPREEQYASTYRVVSVLTVLHQDWLNGKEYKCKVSNKALPAPIEKTISKAKGQPREPQVYTLPPSRCELTKNQVSLSCAVKGFYPSDIAVEWESNGQPENNYKTTPPVLDSDGSFFLVSKLTVDKSRWQQGNVFSCSVMHEALHNHYTQKSLSLSPDYKDDDDK
light 2: DIVMTQSPLSLPVTPGEPASISCSTSEELLHINRFIFLHWYQQKPGQAPRLLIYKVANRFMGVPDRFSGSGSGTDFTLKISRVEAEDVGVYYCAQGSQVPFTFGQGTKLEIKRTVAAPSVFIFPPSDEQLKSGTASVVCLLNNFYPREAKVQWKVDNALQSGNSQESVTEQDSKDSTYSLSSTLTLSKADYEKHKVYACEVTHQGLSSPVTKSFNRGEC

What follows are binders tested against human CD137 expressed constitutively on the B cell strain HDLM-2 (human, UniProt Q07011 24-255) (assay: cell-based or functional assay).
Chain of human CD137 expressed constitutively on the B cell strain HDLM-2 (Q07011 24-255): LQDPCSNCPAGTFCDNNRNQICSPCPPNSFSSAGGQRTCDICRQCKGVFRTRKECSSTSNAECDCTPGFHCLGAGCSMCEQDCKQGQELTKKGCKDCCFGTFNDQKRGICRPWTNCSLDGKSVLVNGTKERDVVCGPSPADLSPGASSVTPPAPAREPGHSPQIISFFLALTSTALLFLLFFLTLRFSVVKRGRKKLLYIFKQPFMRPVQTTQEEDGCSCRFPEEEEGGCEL
B1 was tested, and the “Agonistic activity compared to B, antibody 6 µg/mL” value was 13.9%, the “Agonistic activity compared to B, antibody 30 µg/mL” value was 24.6% and the “Agonistic activity compared to Ctrl, antibody 6 µg/mL” value was 48.3%. The “Agonistic activity compared to Ctrl, antibody 30 µg/mL” value was 93.5%, the “hIL-6 (pg/mL), antibody 6 µg/mL” value was 1500 pg/mL and the “hIL-6 (pg/mL), antibody 30 µg/mL” value was 1750 pg/mL. B2 was tested, and the “Agonistic activity compared to B, antibody 6 µg/mL” value was 8.28%, the “Agonistic activity compared to B, antibody 30 µg/mL” value was 19.2% and the “Agonistic activity compared to Ctrl, antibody 6 µg/mL” value was 28.7%. The “Agonistic activity compared to Ctrl, antibody 30 µg/mL” value was 72.9%, the “hIL-6 (pg/mL), antibody 6 µg/mL” value was 1300 pg/mL and the “hIL-6 (pg/mL), antibody 30 µg/mL” value was 1570 pg/mL. With B3 the “Agonistic activity compared to B, antibody 6 µg/mL” value was 13.2%, the “Agonistic activity compared to B, antibody 30 µg/mL” value was 19.4% and the “Agonistic activity compared to Ctrl, antibody 6 µg/mL” value was 45.8%. The “Agonistic activity compared to Ctrl, antibody 30 µg/mL” value was 73.6%, the “hIL-6 (pg/mL), antibody 6 µg/mL” value was 1480 pg/mL and the “hIL-6 (pg/mL), antibody 30 µg/mL” value was 1570 pg/mL.
